# Data taken from US20220025010A1 (ANTAG THERAPEUTICS, published 2022).
# *1 amine or outer side, *2 acyl side, *3 side chain or, on linkers, in order; H or OH if unused. Where no end group is shown, it is not given here. Side-chain parts run from the residue outwards. [ ]: non-standard residue; d: D form. The star is where a group is joined. C18 diacid = O=C(O)CCCCCCCCCCCCCCCCC(=O)*; C16 diacid = O=C(O)CCCCCCCCCCCCCCC(=O)*; γGlu = O=C(O)[C@H](CCC(=O)[*:2])N[*:1]; pGlu = O=C1CC[C@@H](C(=O)O)N1; AEEA = NCCOCCOCC(=O)O
# T1: human GIP receptor (human, UniProt P48546 22-466)
# T1 sequence (looked up): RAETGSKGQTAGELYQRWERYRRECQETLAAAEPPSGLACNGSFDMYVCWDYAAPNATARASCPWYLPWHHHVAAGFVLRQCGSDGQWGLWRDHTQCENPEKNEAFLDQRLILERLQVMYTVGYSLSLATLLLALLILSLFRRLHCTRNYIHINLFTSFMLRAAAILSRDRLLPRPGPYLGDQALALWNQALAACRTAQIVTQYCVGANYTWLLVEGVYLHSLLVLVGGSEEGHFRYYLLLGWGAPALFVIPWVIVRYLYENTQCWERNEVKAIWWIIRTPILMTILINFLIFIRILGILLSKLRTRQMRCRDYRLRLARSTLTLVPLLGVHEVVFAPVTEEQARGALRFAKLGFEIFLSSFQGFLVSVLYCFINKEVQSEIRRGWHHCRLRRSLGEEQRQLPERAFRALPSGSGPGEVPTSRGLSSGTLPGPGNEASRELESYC
# B1: AT279 (peptide)
# peptide: PGTFISDYSIAMDRIK([AEEA-AEEA-γGlu-C16 diacid])QQDFVNWLLAQR-OH
# modifications: N-terminus assumed
# SMILES: CC[C@H](C)[C@H](NC(=O)[C@H](CO)NC(=O)[C@H](Cc1ccc(O)cc1)NC(=O)[C@H](CC(=O)O)NC(=O)[C@H](CO)NC(=O)[C@@H](NC(=O)[C@H](Cc1ccccc1)NC(=O)[C@@H](NC(=O)CNC(=O)[C@@H]1CCCN1)[C@@H](C)O)[C@@H](C)CC)C(=O)N[C@@H](C)C(=O)N[C@@H](CCSC)C(=O)N[C@@H](CC(=O)O)C(=O)N[C@@H](CCCNC(=N)N)C(=O)N[C@H](C(=O)N[C@@H](CCCCNC(=O)COCCOCCNC(=O)COCCOCCNC(=O)CC[C@H](NC(=O)CCCCCCCCCCCCCCC(=O)O)C(=O)O)C(=O)N[C@@H](CCC(N)=O)C(=O)N[C@@H](CCC(N)=O)C(=O)N[C@@H](CC(=O)O)C(=O)N[C@@H](Cc1ccccc1)C(=O)N[C@H](C(=O)N[C@@H](CC(N)=O)C(=O)N[C@@H](Cc1c[nH]c2ccccc12)C(=O)N[C@@H](CC(C)C)C(=O)N[C@@H](CC(C)C)C(=O)N[C@@H](C)C(=O)N[C@@H](CCC(N)=O)C(=O)N[C@@H](CCCNC(=N)N)C(=O)O)C(C)C)[C@@H](C)CC
# B2: AT271 (peptide)
# peptide: SGTFISDYSIAMDRIKQQDFVNWLLAQR
# HELM: PEPTIDE1{S.G.T.F.I.S.D.Y.S.I.A.M.D.R.I.K.Q.Q.D.F.V.N.W.L.L.A.Q.R}|PEPTIDE2{[O=C(O)CCCCCCCCCCCCCCC(=O)[*:2]].[gGlu].[O=C(COCCOCCN[*:1])[*:2]]}$PEPTIDE1,PEPTIDE2,16:R3-3:R2$$$V2.0; N-terminus assumed
# SMILES: CC[C@H](C)[C@H](NC(=O)[C@H](CO)NC(=O)[C@H](Cc1ccc(O)cc1)NC(=O)[C@H](CC(=O)O)NC(=O)[C@H](CO)NC(=O)[C@@H](NC(=O)[C@H](Cc1ccccc1)NC(=O)[C@@H](NC(=O)CNC(=O)[C@@H](N)CO)[C@@H](C)O)[C@@H](C)CC)C(=O)N[C@@H](C)C(=O)N[C@@H](CCSC)C(=O)N[C@@H](CC(=O)O)C(=O)N[C@@H](CCCNC(=N)N)C(=O)N[C@H](C(=O)N[C@@H](CCCCNC(=O)COCCOCCNC(=O)CC[C@H](NC(=O)CCCCCCCCCCCCCCC(=O)O)C(=O)O)C(=O)N[C@@H](CCC(N)=O)C(=O)N[C@@H](CCC(N)=O)C(=O)N[C@@H](CC(=O)O)C(=O)N[C@@H](Cc1ccccc1)C(=O)N[C@H](C(=O)N[C@@H](CC(N)=O)C(=O)N[C@@H](Cc1c[nH]c2ccccc12)C(=O)N[C@@H](CC(C)C)C(=O)N[C@@H](CC(C)C)C(=O)N[C@@H](C)C(=O)N[C@@H](CCC(N)=O)C(=O)N[C@@H](CCCNC(=N)N)C(=O)O)C(C)C)[C@@H](C)CC
# B3: AT273 (peptide)
# peptide: PGTFISDYSIAMDRIKQQDFVNWLLAQR
# HELM: PEPTIDE1{P.G.T.F.I.S.D.Y.S.I.A.M.D.R.I.K.Q.Q.D.F.V.N.W.L.L.A.Q.R}|PEPTIDE2{[O=C(O)CCCCCCCCCCCCCCC(=O)[*:2]].[gGlu].[O=C(COCCOCCN[*:1])[*:2]]}$PEPTIDE1,PEPTIDE2,16:R3-3:R2$$$V2.0; N-terminus assumed
# SMILES: CC[C@H](C)[C@H](NC(=O)[C@H](CO)NC(=O)[C@H](Cc1ccc(O)cc1)NC(=O)[C@H](CC(=O)O)NC(=O)[C@H](CO)NC(=O)[C@@H](NC(=O)[C@H](Cc1ccccc1)NC(=O)[C@@H](NC(=O)CNC(=O)[C@@H]1CCCN1)[C@@H](C)O)[C@@H](C)CC)C(=O)N[C@@H](C)C(=O)N[C@@H](CCSC)C(=O)N[C@@H](CC(=O)O)C(=O)N[C@@H](CCCNC(=N)N)C(=O)N[C@H](C(=O)N[C@@H](CCCCNC(=O)COCCOCCNC(=O)CC[C@H](NC(=O)CCCCCCCCCCCCCCC(=O)O)C(=O)O)C(=O)N[C@@H](CCC(N)=O)C(=O)N[C@@H](CCC(N)=O)C(=O)N[C@@H](CC(=O)O)C(=O)N[C@@H](Cc1ccccc1)C(=O)N[C@H](C(=O)N[C@@H](CC(N)=O)C(=O)N[C@@H](Cc1c[nH]c2ccccc12)C(=O)N[C@@H](CC(C)C)C(=O)N[C@@H](CC(C)C)C(=O)N[C@@H](C)C(=O)N[C@@H](CCC(N)=O)C(=O)N[C@@H](CCCNC(=N)N)C(=O)O)C(C)C)[C@@H](C)CC
# B4: AT496 (peptide)
# peptide: GGTFISDYSIAMDRIK(C16 diacid)QQDFVNWLLAQR-NH2
# modifications: N-terminus assumed
# SMILES: CC[C@H](C)[C@H](NC(=O)[C@H](CO)NC(=O)[C@H](Cc1ccc(O)cc1)NC(=O)[C@H](CC(=O)O)NC(=O)[C@H](CO)NC(=O)[C@@H](NC(=O)[C@H](Cc1ccccc1)NC(=O)[C@@H](NC(=O)CNC(=O)CN)[C@@H](C)O)[C@@H](C)CC)C(=O)N[C@@H](C)C(=O)N[C@@H](CCSC)C(=O)N[C@@H](CC(=O)O)C(=O)N[C@@H](CCCNC(=N)N)C(=O)N[C@H](C(=O)N[C@@H](CCCCNC(=O)CCCCCCCCCCCCCCC(=O)O)C(=O)N[C@@H](CCC(N)=O)C(=O)N[C@@H](CCC(N)=O)C(=O)N[C@@H](CC(=O)O)C(=O)N[C@@H](Cc1ccccc1)C(=O)N[C@H](C(=O)N[C@@H](CC(N)=O)C(=O)N[C@@H](Cc1c[nH]c2ccccc12)C(=O)N[C@@H](CC(C)C)C(=O)N[C@@H](CC(C)C)C(=O)N[C@@H](C)C(=O)N[C@@H](CCC(N)=O)C(=O)N[C@@H](CCCNC(=N)N)C(N)=O)C(C)C)[C@@H](C)CC
# B5: AT275 (peptide)
# peptide: GGTFISDYSIAMDRIK([AEEA-AEEA-γGlu-C16 diacid])QQDFVNWLLAQR-OH
# modifications: N-terminus assumed
# SMILES: CC[C@H](C)[C@H](NC(=O)[C@H](CO)NC(=O)[C@H](Cc1ccc(O)cc1)NC(=O)[C@H](CC(=O)O)NC(=O)[C@H](CO)NC(=O)[C@@H](NC(=O)[C@H](Cc1ccccc1)NC(=O)[C@@H](NC(=O)CNC(=O)CN)[C@@H](C)O)[C@@H](C)CC)C(=O)N[C@@H](C)C(=O)N[C@@H](CCSC)C(=O)N[C@@H](CC(=O)O)C(=O)N[C@@H](CCCNC(=N)N)C(=O)N[C@H](C(=O)N[C@@H](CCCCNC(=O)COCCOCCNC(=O)COCCOCCNC(=O)CC[C@H](NC(=O)CCCCCCCCCCCCCCC(=O)O)C(=O)O)C(=O)N[C@@H](CCC(N)=O)C(=O)N[C@@H](CCC(N)=O)C(=O)N[C@@H](CC(=O)O)C(=O)N[C@@H](Cc1ccccc1)C(=O)N[C@H](C(=O)N[C@@H](CC(N)=O)C(=O)N[C@@H](Cc1c[nH]c2ccccc12)C(=O)N[C@@H](CC(C)C)C(=O)N[C@@H](CC(C)C)C(=O)N[C@@H](C)C(=O)N[C@@H](CCC(N)=O)C(=O)N[C@@H](CCCNC(=N)N)C(=O)O)C(C)C)[C@@H](C)CC
# Target: T1, human GIP receptor
# Assay: cell-based or functional assay
Binder,CisBio cAMP agonism % Efficacy [%],CisBio cAMP antagonism % inhib [%],CisBio cAMP antagonism IC50 [nM],CisBio cAMP antagonism pIC50,DiscoveRx cAMP antagonism % inhib [%],DiscoveRx cAMP antagonism IC50 [nM],DiscoveRx cAMP antagonism log IC50 [log M],DiscoveRx cAMP agonism Emax
[pGlu]GTFISDYSIAMDRIK([AEEA-AEEA-γGlu-C16 diacid])QQDFVNWLLAQR-NH2 [AT379],0,95,21.5,7.7,96,8,-8.1,–
[pGlu]GTFISDYSIAMDRIK(C18 diacid)QQDFVNWLLAQR-NH2 [AT391],0,95,271,6.6,100,10,-8,–
B1,14,81,159,6.8,–,19,-7.7,17
B2,2,73,85.8,7.1,–,71,-7.2,9
B3,0,–,–,–,–,634,-6.2,35
[pGlu]GTFISDYSIAMDRIK([AEEA-AEEA-γGlu-C18 diacid])QQDFVNWLLAQR-NH2 [AT381],5,74,13.6,7.9,100,38,-7.4,–
B4,0,100,39.8,7.4,100,12,-7.9,–
B5,5,66,126,6.9,–,43,-7.4,5
